Laboratory results reported in patent US20130171217A1, “ENZYMATIC PERACID GENERATION FOR USE IN SKIN CARE PRODUCTS” (E I DU PONT DE NEMOURS AND COMPANY, priority 2010, published 2013).

Key:
[1] = Single fiber tensile strength and bleaching start after two-step enzymatic application; settings: two-step with buffer rinse
Description: Hair samples were cut into pieces 4-inches in length. The denier number (liner mass density) of each hair fiber was measured by Textechno Vibromat Instrument (Textechno Herbert Stein GmbH & Co. KG; Germany). The hair fibers were tested according to ASTM D 3822-01 (“Tensile Properties of Single Textile Fibers”; ASTM International, West Conshohocken, Pa., 2001), on an Instron testing system (Instron Model 1122 Tester; Instron, Mass.) at about 70° F. (approximately 21° C.) and 65% relative humidity. The treated area of the hair sample was placed in the middle of the gauge and both ends were gripped on the test heads. Both fiber ends were attached on a piece of tape, respectively, for easy handling and gripping on the test heads. The test used 2-inch (5.1 cm) gauge length, […], and 1.2 inch/min (3 cm/min) pulling rate. The force-strain curve of the fiber was recorded during the test. The tenacity at maximum (gf/den) was calculated by dividing maximum force (gf) by denier number (den). Note that (gf/den)/11.33=Newtons/tex (N/tex).
In a two-step application, the hair strands are first treated with perhydrolase solutions to allow the enzyme to bind hair. The hair strands are then dried or rinsed with buffer and dried. The rinse step is intended to remove excess unbound enzyme from the hair. The hair strands are soaked in triacetin and H2O2 solutions. The application is repeated for multiple times.
One experiment was carried out with C277S-HC263 and untargeted T. maritima variant C277S using the following protocol: • 1. Enzyme solutions comprising 0.5 mg/mL enzyme in 50 mM phosphate buffer (pH 8) were made with or without 10 wt % urea. • 2. Seven (7) hair strands were soaked in 0.2 mL of an enzyme solution for 10 min and then dried under N2 without prior rinsing. • 3. The hair strands were then soaked in 0.2 mL of a pH 8 solution containing 100-mM triacetin and 250-mM H2O2 for 15 min, dried, then rinsed with DI water and then dried again. • 4. Steps 2-3 were repeated up to 15 times.
Another experiment was carried out with C277S-HC263 (SEQ ID NO: 288), CPAH-HC263 (SEQ ID NO: 294), CPAH-HC1010 (SEQ ID NO: 295) and untargeted C277S using the following protocol: • 1. Enzyme solutions comprising 1.0 mg/mL enzyme in 50 mM phosphate buffer (pH 6) were prepared. For solutions containing two enzymes, the concentration of each enzyme was approximately 0.5 mg/mL. • 2. Seven (7) hair strands were soaked in 0.2 mL of an enzyme solution for 10 min, rinsed with 50 mM phosphate buffer (pH 6), and then dried under N2. • 3. The dried hair strands were then soaked into 0.2 mL of 50 mM phosphate buffer solution (pH 8) comprising 100 mM triacetin and 250 mM H2O2 for 15 min, dried, then rinsed with DI water and then dried again. • 4.

[2] = Impact of additives on perhydrolase activity, PAA indicator strip; assay type: biochemical; settings: glycerin, ethanol, sorbitol, polyethylene glycol or propylene glycol additive
Description: A peracetic acid indicator strip with detection range from 75 to 400 ppm was used to study the impact of additives on the perhydrolase activity of a perhydrolase. When the PAA concentration is at least 0.2 wt %, the dark color generated on the indicator strip will turn back to original white color over time.
A first solution (“solution A”) was prepared using 50 mM phosphate buffer (pH 8) and 10 wt % of one of the following additives: glycerin, ethanol, sorbitol, polyethylene glycol, propylene glycol in, respectively.
A second solution (“solution B”) was prepared by mixing 30% H2O2 and 50 mM phosphate buffer (pH 8) whereby the final concentration of H2O2 was 500 mM.
A third solution (“solution C”) was prepared comprising of CPAH-HC1010 (SEQ ID NO: 295) (0.2 mg/mL), triacetin (200 mM), 50 mM phosphate buffer (pH 8), and solution A (5 wt % additive). Immediately, added solution B in a 1:1 volume ratio. After 1 to 5 min, a 30-μL sample of the resulting solution was removed and immediately placed on a PAA indicator strip.
This process was repeated for each of the additives listed above.

B1: CPAH-HC1010: fusion peptide C277S-HC1010 further comprising a D128G substitution (protein)
chain: MAFFDLPLEELKKYRPERYEEKDFDEFWEETLAESEKFPLDPVFERMESHLKTVEAYDVTFSGYRGQRIKGWLLVPKLEEEKLPCVVQYIGYNGGRGFPHDWLFWPSMGYICFVMDTRGQGSGWLKGGTPDYPEGPVDPQYPGFMTRGILDPRTYYYRRVFTDAVRAVEAAASFPQVDQERIVIAGGSQGGGIALAVSALSKKAKALLCDVPFLCHFRRAVQLVDTHPYAEITNFLKTHRDKEEIVFRTLSYFDGVNFAARAKIPALFSVGLMDNISPPSTVFAAYNYYAGPKEIRIYPYNNHEGGGSFQAVEQVKFLKKLFEKGGPGSGGAGSPGSAGGPGSAQSQLPDKHSGLHERAPQRYGSGTAEIQSSKNPNPHPQRSWTNGSGHNHMQERYTDPQHSPSVNGLGSGHDHKNQKETHQRHAASSHHHHHH
Bleaching Start ([1]; 1.0 mg/mL enzyme pH 6): 12th | Tenacity @ max ([1]; 1.0 mg/mL enzyme pH 6, 100 mM triacetin, 250 mM H2O2, up to 13 repeats): 1.2 gf/den | perhydrolase activity (PAA by indicator strip) in presence of additives [2]: ≥ 2000 ppm
